This test addresses recombinant RBD protein of SARS-CoV (SARS-CoV (2003), strain of the bought …, UniProt P59594). The experiment in a line: SPR. A general note: In SPR one partner is held on a chip, and binding of the other changes the refractive index at the surface.

B1: S2H97 (antibody, V domains shown)
VH: QVRLVQSGAEVKKSGESLKISCKGSGYSFTSYWIGWVRQMPGKGLEWMGIIYPGDSDTRYSPSFQGQVTISADKSISTVYLQWSSLKASDTAMYYCARQWSHYTYDYYYWGQGTLVTISS
VL: QSVLTQPASVSGSPGQSITISCTGISSDVGGYNSVSWYQQHPGKAPKLMIYDVTNRPSGVSNRFSGSKSGNTASLTISGLQAEDEADYYCSSYTSSSTPPYVFGTGTKVSVL
Turning to B1, the binding result is on record as “binds”.
